According to patent US20150165067A1 (Eli Lilly, published 2015):
Each block holds one binder with its values, some of them ahead of it.

Tests used:
[1] = molecular target: human FGFR3 S249C, endogenous on UMUC-14 bladder tumor cells (human) (UniProt P22607); assay: cell-based or functional assay
[2] = molecular target: human FGFR3 on RT-112 bladder tumor cells (wild type and FGFR3-TACC3 fusion receptors) (human) (UniProt P22607); assay: cell-based or functional assay
[3] = molecular target: human FGFR3 wild type, endogenous on tumor cell lines (BFTC-905, KU-19-19, UMUC-3) (human) (UniProt P22607); assay: flow cytometry, 15 µg/mL Alexa488-labeled Antibody 1 on BFTC-905 cells, quantified with Quantum Simply Cellular beads
[4] = molecular target: human FGFR3 Y373C, endogenous on KMS-11 multiple myeloma cells (human) (UniProt P22607); assay: flow cytometry, 15 µg/mL Alexa488-labeled Antibody 1 on KMS-11 cells, quantified with Quantum Simply Cellular beads
[5] = molecular target: FGFR3-TACC3 fusion on RT-4 bladder tumor cells (TACC3 exon-4) (human, UniProt Q9Y6A5 140-838, limits assumed); assay: cell-based or functional assay
[6] = molecular target: human FGFR3 on RT-112 bladder tumor cells (wild type and FGFR3-TACC3 fusion receptors) (human) (UniProt P22607); assay: flow cytometry, 15 µg/mL Alexa488-labeled Antibody 1 on RT-112 cells, quantified with Quantum Simply Cellular beads
[7] = molecular target: human FGFR3 S249C, endogenous on UMUC-14 bladder tumor cells (human) (UniProt P22607); assay: flow cytometry, 15 µg/mL Alexa488-labeled Antibody 1 on UMUC-14 cells, quantified with Quantum Simply Cellular beads
[8] = molecular target: human FGFR3 wild type, endogenous on tumor cell lines (BFTC-905, KU-19-19, UMUC-3) (human) (UniProt P22607); assay: flow cytometry, 15 µg/mL Alexa488-labeled Antibody 1 on KU-19-19 cells, quantified with Quantum Simply Cellular beads
[9] = molecular target: human FGFR3(IIIb) S249C on BaF3 cells (human, UniProt P22607 23-808); assay: cell-based or functional assay
[10] = molecular target: human FGFR3(IIIb) R248C on BaF3 cells (human, UniProt P22607 23-808); assay: cell-based or functional assay
[11] = molecular target: human FGFR3(IIIb) Y375C on BaF3 cells (human, UniProt P22607 23-808); assay: cell-based or functional assay
[12] = molecular target: human FGFR3(IIIb) G372C on BaF3 cells (human, UniProt P22607 23-808); assay: cell-based or functional assay
[13] = molecular target: T1, human FGFR3(IIIb) WT on BaF3 cells (human, UniProt P22607 23-808); assay: cell-based or functional assay
[14] = molecular target: T2, huFGFR3(IIIb), immobilized receptor (human, UniProt P22607-2 23-377, limits assumed); assay: SPR (Biacore); the sentence names no antigen or format, the section is on immobilized huFGFR3(IIIb); naked Antibody 1, not Conjugate 1
T2 construct: Amine-coupled to a CM5 chip; also called human FGFR3(IIIb)
T2 sequence (looked up): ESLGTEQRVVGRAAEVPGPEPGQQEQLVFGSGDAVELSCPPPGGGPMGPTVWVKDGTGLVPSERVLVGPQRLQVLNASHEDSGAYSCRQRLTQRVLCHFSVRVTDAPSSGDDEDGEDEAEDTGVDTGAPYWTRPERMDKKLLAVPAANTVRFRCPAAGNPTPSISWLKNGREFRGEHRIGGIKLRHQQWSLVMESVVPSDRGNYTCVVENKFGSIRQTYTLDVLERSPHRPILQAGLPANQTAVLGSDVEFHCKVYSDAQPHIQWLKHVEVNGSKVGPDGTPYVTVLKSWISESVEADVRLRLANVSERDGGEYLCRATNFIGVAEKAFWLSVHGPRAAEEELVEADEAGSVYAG

[15] = molecular target: T2, huFGFR3(IIIb), immobilized receptor; assay: SPR, Biacore T200, 25 C, huFGFR3(IIIb) amine-coupled on CM5 chip, Conjugate 1 as analyte, 1:1 model, n=3
Description: Use a CM5 chip containing immobilized receptor huFGFR3(IIIb) (generated using standard NHS-EDC amine coupling) on 2 flow cells. Prepare samples of Conjugate 1 by 2 fold serial dilutions starting at 60 nM, 6 dilutions total into running buffer. Immobilize receptor at 2.5 μg/mL (55 RU). Each analysis cycle consists of: (1) sample injection at 30 μL/min with 180 sec contact time, (2) dissociation by injection of buffer for 900 sec at 30 μL/min, (3) regeneration in a 0.5% solution of SDS contact time 30 sec at a flow rate of 40 μL/min. Process data using standard double-referencing and fit to a 1:1 binding model using Biacore® 2000 Evaluation software, version 4.1, to determine the association rate (kₒₙ, M⁻¹s⁻¹ units), dissociation rate (koff, s⁻¹ units), and Rmax (RU units). The equilibrium dissociation constant (KD) is calculated from the relationship of KD=koff/kₒₙ. KD is in molar units.

[16] = molecular target: human FGFR3 wild type, endogenous on tumor cell lines (BFTC-905, KU-19-19, UMUC-3) (human, UniProt P22607 23-806); assay: cell-based or functional assay
[17] = molecular target: T3, human FGFR3 on RT-112 bladder tumor cells (wild type and FGFR3-TACC3 fusion receptors) (human, UniProt P22607 23-806); assay: cell-based or functional assay
human FGFR3(IIIb)-Fc = molecular target: T4, human FGFR3(IIIb)-Fc (human, UniProt P22607-2 23-377, limits assumed); assay: MSD electrochemiluminescence plate assay: blocking of ruthenium-labeled FGF1 (1 ug/mL, with heparin) binding to coated human FGFR3(IIIb)-Fc
T4 construct: Coated on the MSD plate; not shown: Fc part
T4 sequence (looked up): T2 sequence (looked up)

[18] = molecular target: human FGFR3 on Kato-III gastric tumor cells (human, UniProt P22607 23-806); assay: cell-based or functional assay
[19] = molecular target: T1, human FGFR3(IIIb) WT on BaF3 cells; assay: cell-based or functional assay; remark: listed apart in the source
[20] = molecular target: T3, human FGFR3 on RT-112 bladder tumor …; assay: cell-based or functional assay; remark: listed apart in the source

- internalization in UMUC-14 cells, cell-associated fluorescence by flow cytometry over 48 h (fold over control) [1]: > 9
- internalization in RT-112 cells, cell-associated fluorescence by flow cytometry over 48 h (fold over background) [2]: 7
- FGFR3 cell surface expression (ABC) [3]: 11000 ABC
- FGFR3 cell surface expression (ABC) [4]: 120000 ABC
- internalization in RT-4 cells, cell-associated fluorescence by flow cytometry over 48 h [5]: ~7 fold over background
- FGFR3 cell surface expression (ABC) [6]: 16000 ABC
- FGFR3 cell surface expression (ABC) [7]: 27000 ABC
- FGFR3 cell surface expression (ABC) [8]: < 4000 ABC
B1: Antibody 1-Alexa488 (antibody, human IgG1, lambda, V domains shown)
VH: EVQLVQSGAEVKKPGASVKVSCKASGYMFTSYGISWVRQAPGQGLEWMGWVSTYNGDTNYAQKFQGRVTVTTDTSTSTAYMELRSLRSEDTAVYYCARVLGYYDSIDGYYYGMDVWGQGTTVTVSS
VL: QSVLTQPPSLSVAPGKTATFTCGGNNIGDKSVHWYRQKPGQAPVLVMYLDTERPSGIPERMSGSNFGNTATLTITRVEAGDEADYYCQVWDSGSDHVVFGGGTKLTVLG
modifications: Alexa488 label (sites not given)

- IC50 for neutralizing FGF1 (51.6 nM)-induced 3H-thymidine incorporation in BaF3 cells [9]: 2.17 nM
- IC50 for neutralizing FGF9 (34.72 nM)-induced 3H-thymidine incorporation in BaF3 cells [9]: 0.46 nM
- IC50 for neutralizing FGF1 (51.6 nM)-induced 3H-thymidine incorporation in BaF3 cells [10]: 1.32 nM
- IC50 for neutralizing FGF1 (51.6 nM)-induced 3H-thymidine incorporation in BaF3 cells [11]: 8.77 nM
- IC50 for neutralizing FGF9 (34.72 nM)-induced 3H-thymidine incorporation in BaF3 cells [11]: 1.42 nM
- IC50 for neutralizing FGF1 (51.6 nM)-induced 3H-thymidine incorporation in BaF3 cells [12]: 4.81 nM
- IC50 for neutralizing FGF1 (51.6 nM)-induced 3H-thymidine incorporation in BaF3 cells [13]: 4.2 nM
- IC50 for neutralizing FGF9 (34.72 nM)-induced 3H-thymidine incorporation in BaF3 cells [13]: 0.4 nM
- Kd [14]: 0.13 nM
B2: Antibody 1 (antibody, human IgG1, lambda, V domains shown)
VH: B1 VH
VL: B1 VL
notes: Human monoclonal antibody with a lambda light chain; also called naked Antibody 1; anti-FGFR3 antibody

- Kd [15]: 0.823 nM
- koff [15]: 0.000187 s⁻¹
- kon [15]: 227000 M⁻¹ s⁻¹
- IC50 (human FGFR3(IIIb)-Fc): 3.6 nM
B3: Conjugate 1 (antibody, human IgG1, lambda, V domains shown)
VH: B1 VH
VL: B1 VL
modifications: DM4 attached through the sulfo-SPDB linker to available lysine residues (positions not given); DAR 3.5 ± 0.5 for the whole antibody
notes: also called Antibody 1-sulfo-SPDB-DM4; the conjugate of the present invention
- Cytotoxicity Conjugate 1 IC50, BFTC-905 (bladder) cells, Cell Titer-Glo, 96 h [16]: 2.7 nM
- Cytotoxicity Conjugate 1 IC50, RT-112 (bladder) cells, Cell Titer-Glo, 96 h [17]: 1.3 nM
- cytotoxicity IC50 (nM), Kato-III cells [18]: 5.4 nM
- cytotoxicity IC50 (nM), transfected Baf3-FGFR3(IIIb) cells [19]: 2.5 nM
- cytotoxicity IC50 (nM), RT112 cells [20]: 2.1 nM
